B1: E3 ubiquitin-protein ligase RNF26 (Homo sapiens), Q9BY78 (parent)
chain: MEAVYLVVNGLGLVLDVLTLVLDLNFLLVSSLLASLAWLLAFVYNLPHTVLTSLLHLGRGVLLSLLALIEAVVRFTCGGLQALCTLLYSCCSGLESLKLLGHLASHGALRSREILHRGVLNVVSSGHALLRQACDICAIAMSLVAYVINSLVNICLIGTQNLFSLVLALWDAVTGPLWRMTDVVAAFLAHISSSAVAMAILLWTPCQLALELLASAARLLASFVLVNLTGLVLLACVLAVTVTVLHPDFTLRLATQALSQLHARPSYHRLREDVMRLSRLALGSEAWRRVWSRSLQLASWPNRGGAPGAPQGDPMRVFSVRTRRQDTLPEAGRRSEAEEEEARTIRVTPVRGRERLNEEEPPGGQDPWKLLKEQEERKKCVICQDQSKTVLLLPCRHLCLCQACTEILMRHPVYHRNCPLCRRGILQTLNVYL
partner: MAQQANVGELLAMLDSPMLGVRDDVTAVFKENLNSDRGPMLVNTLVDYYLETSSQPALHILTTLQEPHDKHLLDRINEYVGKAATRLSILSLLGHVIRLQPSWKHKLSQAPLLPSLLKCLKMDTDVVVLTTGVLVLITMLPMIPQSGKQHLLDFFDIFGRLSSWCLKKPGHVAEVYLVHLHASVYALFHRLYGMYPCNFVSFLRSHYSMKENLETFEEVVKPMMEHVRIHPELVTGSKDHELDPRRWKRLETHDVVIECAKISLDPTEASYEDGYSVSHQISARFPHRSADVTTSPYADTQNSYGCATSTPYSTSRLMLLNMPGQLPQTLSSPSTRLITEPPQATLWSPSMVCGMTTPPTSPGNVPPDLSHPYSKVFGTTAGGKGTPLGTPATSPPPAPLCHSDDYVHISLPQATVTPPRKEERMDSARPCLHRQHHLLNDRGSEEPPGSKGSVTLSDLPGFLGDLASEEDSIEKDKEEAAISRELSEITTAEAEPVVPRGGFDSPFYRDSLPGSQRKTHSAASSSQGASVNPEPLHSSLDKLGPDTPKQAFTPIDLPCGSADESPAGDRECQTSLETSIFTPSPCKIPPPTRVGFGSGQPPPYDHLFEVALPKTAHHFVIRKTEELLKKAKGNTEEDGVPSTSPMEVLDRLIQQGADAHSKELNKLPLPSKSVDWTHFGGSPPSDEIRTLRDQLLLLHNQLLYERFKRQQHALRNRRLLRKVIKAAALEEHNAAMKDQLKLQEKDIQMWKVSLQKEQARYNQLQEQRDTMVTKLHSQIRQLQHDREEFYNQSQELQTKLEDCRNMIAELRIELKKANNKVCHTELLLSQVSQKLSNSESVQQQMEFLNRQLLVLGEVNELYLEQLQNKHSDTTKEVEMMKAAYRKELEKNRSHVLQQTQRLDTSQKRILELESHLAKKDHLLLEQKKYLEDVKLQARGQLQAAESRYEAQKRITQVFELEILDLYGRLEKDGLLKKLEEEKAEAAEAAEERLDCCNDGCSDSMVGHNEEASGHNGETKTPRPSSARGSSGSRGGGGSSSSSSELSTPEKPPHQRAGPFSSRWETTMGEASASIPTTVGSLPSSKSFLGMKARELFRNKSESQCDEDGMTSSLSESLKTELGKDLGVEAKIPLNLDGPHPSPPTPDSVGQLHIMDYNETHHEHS

Variants of: B1
Settings: with tsc1_human TSC1, Q92574

effect of a mutation on the interaction | Variant
decreasing interaction | T348A

Variants of: B1
Settings: with tsc1_human TSC1, Q92574
Remark: another data set of the same source

effect of a mutation on the interaction | Variant
increasing interaction | T348D

Source: IntAct's records for PubMed 38890443
